Source: patent publication CN113045675A (BEIJING ROCK EDGE BIOTECHNOLOGY CO LTD, dated 2021)

Legend:
[1] = target: T1, CD22蛋白胞外段 (CD22 extracellular domain, C-terminal His tag) (human, UniProt P20273 20-687); assay: SPR, Biacore T200; CD22 amine-coupled to a CM5 chip; screening of clones by affinity
T1 construct: extracellular domain; also called CD22胞外段蛋白; CD22蛋白分子; not shown: C-terminal His tag
T1 sequence (looked up): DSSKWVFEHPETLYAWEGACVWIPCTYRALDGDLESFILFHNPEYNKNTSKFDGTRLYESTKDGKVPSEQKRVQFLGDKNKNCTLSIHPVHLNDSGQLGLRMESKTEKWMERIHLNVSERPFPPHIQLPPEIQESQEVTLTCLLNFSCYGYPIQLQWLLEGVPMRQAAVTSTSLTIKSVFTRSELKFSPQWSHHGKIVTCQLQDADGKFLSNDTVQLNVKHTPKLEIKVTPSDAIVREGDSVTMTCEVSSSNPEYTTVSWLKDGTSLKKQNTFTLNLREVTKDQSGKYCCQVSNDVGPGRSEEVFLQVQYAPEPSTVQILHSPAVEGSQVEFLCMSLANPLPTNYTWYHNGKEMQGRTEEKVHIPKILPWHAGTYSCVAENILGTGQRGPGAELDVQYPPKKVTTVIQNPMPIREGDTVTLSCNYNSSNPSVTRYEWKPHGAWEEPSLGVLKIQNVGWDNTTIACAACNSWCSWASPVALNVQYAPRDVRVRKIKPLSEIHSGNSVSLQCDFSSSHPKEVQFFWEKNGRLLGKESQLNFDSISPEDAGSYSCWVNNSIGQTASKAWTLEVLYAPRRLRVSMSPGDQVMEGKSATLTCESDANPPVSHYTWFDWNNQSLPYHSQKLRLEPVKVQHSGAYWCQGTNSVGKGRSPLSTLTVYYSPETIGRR

[2] = target: T1, CD22蛋白胞外段 (CD22 extracellular domain, …); assay: SPR, Biacore T200; CD22 amine-coupled to a CM5 chip; nanobody at 2, 4, 8, 16 and 32 nM; curve fit

- Kd [1]: ~10 nM
- Kd [2]: 9.47 nM
B1: BA125纳米抗体 (BA125 nanobody, VHH against CD22, C-terminal His tag) (VHH)
VHH: QVQLVESGGGLVQPGGSLRLSCAASGSIFGSNTMGWFRQAPGQQRELVAAMSTLGRTSYAVSVKGRFTISRDNAKNTVYLQMNSLKPEDTAVYYCKYTGTTPRDIYWGLGTQVTVSS
notes: also called 纳米抗体BA125克隆; BA125纳米抗体VHH区; not shown: C-terminal His tag
